Experimental data published in article PMC2140169.

Experiments:
[1] = target: GST-Nup358 fragment 2500-C (amino acid 2500 to the COOH terminus) (UniProt P49792); assay: solid-phase binding assay in microtiter wells
[2] = target: GST-Nup358 fragment amino acids 2550-2837 (region between Ran-binding domains three and four, without FXFG repeats) (UniProt P49792); assay: solid-phase binding assay in microtiter wells

Question: How did the percent of added protein bound [1] turn out when “SUMO-1-modified NΔ419 (RanGAP1 amino acids 420-589) (from UniProt P46061 420-589) (complex)” was run?
Answer: 20%

Question: And the fold reduction in binding against the domain containing FXFG repeats (2503-2893) [2]?
Answer: 5 fold
